PMC8616854

Tests used:
[1] = molecular target: CdiA‐CT^BWH57 toxin (nuclease) domain (Serratia marcescens BWH57); test: crystal structure; CdiA-CT•CdiI complex, 1.59 Å; the N-terminal domain of CdiA-CT was cleaved off by in situ proteolysis before crystallisation
[2] = molecular target: Histidine zipper coiled coil protein from Meiothermus silvanus (Meio) (Meiothermus silvanus); test: crystal structure; crystal structures of the histidine zipper proteins (1.35 to 1.93 Å); antiparallel homo-dimers
[3] = molecular target: Histidine zipper coiled coil protein from Methylobacter tundripaludum (Tuna) (Methylobacter tundripaludum); test: as above
[4] = molecular target: Histidine zipper coiled coil protein from Nitrosococcus oceani (Nitro) (Nitrosococcus oceani); test: as above

Substance: CdiI^BWH57 immunity protein (natural protein)
- stoichiometry N [1]: 1

Substance: Histidine zipper coiled coil protein from Meiothermus silvanus (Meio) (natural protein)
- stoichiometry N [2]: 2

Substance: Histidine zipper coiled coil protein from Methylobacter tundripaludum (Tuna) (natural protein)
- stoichiometry N [3]: 2

Substance: Histidine zipper coiled coil protein from Nitrosococcus oceani (Nitro) (natural protein)
- stoichiometry N [4]: 2
